The record followed here is patent US9907791B2, “Ron inhibitors for use in preventing and treating bone loss” (UNIVERSITY OF UTAH RESEARCH FOUNDATION, priority 2014, dated 2018).

For assay [1], the system named is MSP-overexpressing MDA-MB-231 cells. In words: Intratibial MSP-overexpressing MDA-MB-231 tumor-induced osteolysis. It is filed as in vivo, NOD.SCID mice. To be noted: treated 3 days post tumor cell injection, sacrificed 30 days. The text has this: (§1) All procedures involving mice and experimental protocols were approved by the Institutional Animal Care and Use Committee (IACUC) of the University of Utah. The RonTK−/− mice which reside on the FVB background, were crossed with NOD.SCID mice for an immune-compromised mouse model. As a control, wild-type FVB mice were also crossed with NOD.SCID mice. The STK−/− mice, which are on a C57BL/6 background, were compared to wild-type C57BL/6 mice as controls. Mice for all experiments were 6 to 8 weeks of age. For intratibial injections, 1×10^5 (PyMTor DU4475) or 3×10^5 (MDA-MB-231) tumor cells were resuspended in 10 μL matrigel and injected into the right tibia of anesthetized female FVB (PyMT) or NOD.SCID mice carrying various alleles of RON. Osteolysis was assessed by X-ray radiography. Dissected hindlimbs from mice sacrificed at the final time point in each experiment were placed in the Kodak In-vivo Multispectral Imaging System FX and exposed to X-ray radiography at 35 kV for 100 sec. Excess tumor tissue was removed from the bones prior to X-ray. Osteolytic lesions were quantified using Image J software (NCBI). All images were compared to the contralateral leg as an internal control.
(§2) For in vivo experiments, the OSI-296 inhibitor was dissolved in 40% Trappsol with 0.01 M HCl, and mice were treated at a concentration of 200 mg/kg daily by oral gavage. […]

In assay [2] the test system is MDA-MB-231 control tumor cells. In words: Intratibial MDA-MB-231 control tumor-induced osteolysis. To be noted: treated 3 days post tumor cell injection, sacrificed 30 days. The class given is in vivo, NOD.SCID mice.
From the text: as §1, §2

Another assay relates to PyMT-MSP tumor cells. In words: Intratibial PyMT-MSP tumor-induced osteolysis. The class given is in vivo, mice.
From the text: as §1
Hindlimb bones were excised from mice at the time of sacrifice and bones were fixed in 10% neutral-buffered formalin, decalcified in Formical-2000 (Decal Corporation, Tallman, N.Y.) for 8 days and embedded in paraffin for hematoxylin and eosin (H & E) or immunohistochemical staining. Osteoclast number was assessed as TRAP^+ multinucleated cells containing 4 or more nuclei and reported as TRAP^+ cells per field. Three sections per mouse and 5 fields per section were used for quantification with fields representing the entire length of the tibia. Tumor proliferation rate was reported as the number of cells which were positive for phospho-H3 staining compared to the number of unstained cells per field expressed as a percent. Three sections per mouse and 5 fields per section were used for quantification with analysis being restricted to within the bone marrow cavity. […]

B1: muRANK-Fc: murine RANKL antagonist (Amgen) (protein)
chain: VTPPCTQERHYEHLGRCCSRCEPGKYLSSKCTPTSDSVCLPCGPDEYLDTWNEEDKCLLHKVCDAGKALVAVDPGNHTAPRRCACTAGYHWNSDCECCRRNTECAPGFGAQHPLQLNKDTVCTPCLLGFFSDVFSSTDKCKPWTNCTLLGKLEAHQGTTESDVVCSSSMTLRRPPKEAQAYLPS
modifications: left off: a dimerising Fc or GST
Consider B1, for which the “osteolysis from MSP-expressing MDA-MB-231 tumor cells” value in assay [1] is reported as “did not significantly reduce”. The “osteolysis from control MDA-MB-231 tumor cells” value in assay [2] was “reduced osteolysis”. The “MSP-driven osteolysis in Ron TK−/− mice” value with PyMT-MSP tumor cells (Ron TK−/− mice, treatment began 3 days post tumor cell injection) is “did not reduce this further”. The “TRAP+ osteoclasts in tumor-bearing bones” value in the assay on PyMT-MSP tumor cells (TRAP staining of bone sections) is on record as “lack of TRAP+ cells”. The “osteolysis from PyMT-MSP tumors” value in the assay on PyMT-MSP tumor cells (WT mice, treatment began 3 days post tumor cell injection) is reported as “significant osteolysis even in the presence of the RANKL antagonist”.
